Reference: the supplement of paper PMC10724198
± gives the standard deviation of the averaged measurements.

Assays:
Saccharomyces cerevisiae [1] = assay: protein stability index of tFT-peptide fusion (C-terminal peptide) (PSI (0-1 scale)); higher = more stable (slower turnover)
Method: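 MPS profiling in S. cerevisiae of the tFT-X12 degron library: putative degron peptides plus stable controls, 12 aa, fused to the C-terminus of a sfGFP-mCherry timer. Cells are FACS-sorted into 8 mCherry/sfGFP bins and deep-sequenced. PSI runs from 0 (unstable) to 1 (stable). Backgrounds are wild type, das1Δ and doa10Δ at 30 °C, and wild type, das1Δ, cdc34-1 and cdc53-1 at 37 °C; 2-3 technical replicates each.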

Saccharomyces cerevisiae [2] = assay: as above; conditions: genetic background: wild type; temperature: 30 C
[3] = genetic background: cdc34-1, temperature: 37 C
[4] = genetic background: cdc53-1, temperature: 37 C
[5] = genetic background: das1 deletion, temperature: 30 C
[6] = genetic background: das1 deletion, temperature: 37 C
[7] = genetic background: doa10 deletion, temperature: 30 C
[8] = genetic background: wild type, temperature: 30 C
[9] = genetic background: wild type, temperature: 37 C
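Also: PSI is a weighted mean of sequencing reads over stability bins, variants kept only with over 10 reads, mCherry proximal and sfGFP distal, peptide attached via GGGS linker.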

| Sequence | protein stability index (Saccharomyces cerevisiae [1]; [3]) | protein stability index (Saccharomyces cerevisiae [1]; [4]) | protein stability index (Saccharomyces cerevisiae [1]; [5]) | protein stability index (Saccharomyces cerevisiae [1]; [6]) | protein stability index (Saccharomyces cerevisiae [1]; [7]) | protein stability index (Saccharomyces cerevisiae [1]; [8]) | protein stability index (Saccharomyces cerevisiae [1]; [9]) | protein stability index (Saccharomyces cerevisiae [2]) |
| --- | --- | --- | --- | --- | --- | --- | --- | --- |
| ICIFWLITGLWL | 0.465 ± 0.074 | 0.459 ± 0.026 | 0.336 ± 0.03 | 0.487 ± 0.019 | 0.304 ± 0.014 | 0.324 ± 0.013 | 0.4633 ± 0.0029 | 0.3884 ± 0.00079 |
| IFLCRNGAVFIC | 0.398 ± 0.07 | 0.7987 ± 0.0065 | 0.733 ± 0.016 | 0.872 ± 0.019 | 0.0808 ± 0.021 | 0.0798 ± 0.016 | 0.0995 ± 0.012 | 0.158 ± 0.015 |
| IFRVTGFPIYIF | 0.327 ± 0.045 | 0.36 ± 0.024 | 0.339 ± 0.021 | 0.4535 ± 0.0037 | 0.222 ± 0.014 | 0.233 ± 0.025 | 0.3522 ± 0.0011 | 0.297 ± 0.012 |
| IGFSPSFQLYSA | 0.726 ± 0.0078 | 0.756 ± 0.012 | 0.666 ± 0.0083 | 0.77318 ± 9.2e-05 | 0.6445 ± 0.0049 | 0.67 ± 0.016 | 0.747 ± 0.012 | 0.721 ± 0.0083 |
| IGILVTAVPVFD | 0.507 ± 0.057 | 0.518 ± 0.0058 | 0.386 ± 0.042 | 0.5522 ± 0.0021 | 0.343 ± 0.013 | 0.382 ± 0.021 | 0.529 ± 0.011 | 0.451 ± 0.012 |
| IIAGVWFLEILG | 0.4134 ± 0.0039 | 0.525 ± 0.009 | 0.333 ± 0.027 | 0.527 ± 0.012 | 0.308 ± 0.012 | 0.312 ± 0.022 | 0.497 ± 0.023 | 0.479 ± 0.015 |
| IIGCIAICLMVN | 0.0164 ± 0.0065 | 0.214 ± 0.25 | 0.0942 ± 0.042 | 0.0938 ± 0.019 | 0.0381 ± 0.015 | 0.0451 ± 0.016 | 0.0405 ± 0.027 | 0.0843 ± 0.012 |
| IKCVPLVWRLTV | 0.457 ± 0.0073 | 0.594 ± 0.045 | 0.534 ± 0.038 | 0.6384 ± 0.0023 | 0.109 ± 0.022 | 0.123 ± 0.02 | 0.1955 ± 0.001 | 0.272 ± 0.031 |
| IKIQPKKRISLI | 0.658 ± 0.056 | 0.707 ± 0.058 | 0.632 ± 0.039 | 0.702 ± 0.017 | 0.155 ± 0.0043 | 0.174 ± 0.043 | 0.391 ± 0.031 | 0.299 ± 0.0067 |
| ILAVMFEIYAIL | 0.422 ± 0.013 | 0.5124 ± 0.0015 | 0.349 ± 0.042 | 0.533 ± 0.0094 | 0.185 ± 0.018 | 0.228 ± 0.029 | 0.42 ± 0.023 | 0.3593 ± 0.0012 |
| ILCYVWLVFSGF | 0.225 ± 0.0092 | 0.311 ± 0.019 | 0.223 ± 0.029 | 0.382 ± 0.01 | 0.194 ± 0.0036 | 0.204 ± 0.032 | 0.369 ± 0.025 | 0.373 ± 0.022 |
| INHVIHAKLRFS | 0.629 ± 0.015 | 0.675 ± 0.082 | 0.643 ± 0.011 | 0.72 ± 0.03 | 0.11 ± 0.026 | 0.13 ± 0.03 | 0.249 ± 0.075 | 0.237 ± 0.066 |
| ISSAGHNIRFLA | 0.599 ± 0.052 | 0.698 ± 0.022 | 0.658 ± 0.025 | 0.715 ± 0.008 | 0.107 ± 0.025 | 0.129 ± 0.034 | 0.21 ± 0.018 | 0.23 ± 0.052 |
| ISTRLALCACVC | 0.184 ± 0.027 | 0.18 ± 0.0098 | 0.245 ± 0.019 | 0.3009 ± 0.0026 | 0.1999 ± 0.00074 | 0.208 ± 0.017 | 0.245 ± 0.0031 | 0.3273 ± 0.0032 |
| IVRDTECGIFYR | 0.689 ± 0.05 | 0.75 ± 0.021 | 0.642 ± 0.016 | 0.735 ± 0.023 | 0.6512 ± 0.0058 | 0.6662 ± 0.006 | 0.723 ± 0.021 | 0.731 ± 0.013 |
| IVVWCGIRYSIR | 0.328 ± 0.005 | 0.415 ± 0.055 | 0.263 ± 0.035 | 0.484 ± 0.0071 | 0.233 ± 0.013 | 0.262 ± 0.029 | 0.459 ± 0.0096 | 0.366 ± 0.032 |
| KKKEILVYIIQE | 0.598 ± 0.036 | 0.612 ± 0.024 | 0.438 ± 0.029 | 0.578 ± 0.018 | 0.4732 ± 0.0016 | 0.512 ± 0.077 | 0.592 ± 0.02 | 0.484 ± 0.014 |
| KRLALVSCSICG | 0.569 ± 0.03 | 0.6459 ± 0.003 | 0.446 ± 0.025 | 0.6239 ± 0.002 | 0.321 ± 0.028 | 0.351 ± 0.031 | 0.583 ± 0.0087 | 0.4681 ± 0.0043 |
| KRRKERIKIQQI | 0.628 ± 0.037 | 0.715 ± 0.041 | 0.634 ± 0.073 | 0.737 ± 0.089 | 0.122 ± 0.0062 | 0.168 ± 0.046 | 0.28 ± 0.0094 | 0.261 ± 0.062 |
| KVGPVLLLCRRS | 0.6524 ± 0.00046 | 0.68 ± 0.023 | 0.637 ± 0.013 | 0.699 ± 0.0081 | 0.621 ± 0.019 | 0.628 ± 0.028 | 0.69 ± 0.0066 | 0.445 ± 0.0089 |
| LAGSSSIVVVFG | 0.445 ± 0.00068 | 0.469 ± 0.04 | 0.299 ± 0.038 | 0.527 ± 0.0056 | 0.2496 ± 0.0021 | 0.297 ± 0.049 | 0.496 ± 0.026 | 0.406 ± 0.018 |
| LAGVVWVVWCVG | 0.17 ± 0.013 | 0.21 ± 0.0091 | 0.195 ± 0.031 | 0.385 ± 0.0088 | 0.1814 ± 0.00077 | 0.198 ± 0.03 | 0.367 ± 0.039 | 0.314 ± 0.06 |
| LALTRAAITHFF | 0.649 ± 0.026 | 0.749 ± 0.013 | 0.652 ± 0.017 | 0.743 ± 0.039 | 0.213 ± 0.0085 | 0.253 ± 0.026 | 0.496 ± 0.021 | 0.42 ± 0.026 |
| LASLSRPFRAKF | 0.9674 ± 0.0085 | 0.949 ± 0.026 | 0.843 ± 0.011 | 0.914 ± 0.013 | 0.828 ± 0.029 | 0.8573 ± 0.0074 | 0.916 ± 0.012 | 0.792 ± 0.0093 |
| LCFLVLLSLLLL | 0.558 ± 0.047 | 0.581 ± 0.018 | 0.464 ± 0.029 | 0.5486 ± 0.0041 | 0.466 ± 0.022 | 0.456 ± 0.024 | 0.5057 ± 0.0012 | 0.528 ± 0.061 |
| LCHILAIIRRGA | 0.691 ± 0.019 | 0.737 ± 0.032 | 0.596 ± 0.037 | 0.687 ± 0.013 | 0.429 ± 0.038 | 0.449 ± 0.05 | 0.624 ± 0.036 | 0.509 ± 0.05 |
| LCLRCQCIGTLS | 0.54 ± 0.017 | 0.587 ± 0.014 | 0.45 ± 0.023 | 0.557 ± 0.012 | 0.413 ± 0.016 | 0.435 ± 0.013 | 0.54 ± 0.0091 | 0.489 ± 0.0097 |
| LCSLSIFVLFSC | 0.192 ± 0.015 | 0.309 ± 0.027 | 0.209 ± 0.036 | 0.381 ± 0.0064 | 0.141 ± 0.0032 | 0.147 ± 0.017 | 0.272 ± 0.018 | 0.25 ± 0.005 |
| LCSVVIFCLVWG | 0.117 ± 0.0048 | 0.263 ± 0.041 | 0.198 ± 0.03 | 0.343 ± 0.044 | 0.177 ± 0.008 | 0.182 ± 0.019 | 0.306 ± 0.0083 | 0.324 ± 0.022 |
| LCVWRRAIVWVG | 0.363 ± 0.038 | 0.4573 ± 0.0015 | 0.352 ± 0.025 | 0.512 ± 0.007 | 0.0712 ± 0.011 | 0.0818 ± 0.021 | 0.0815 ± 0.0071 | 0.137 ± 0.039 |
